This series deals with the molecule itself. Nature of the series: SEC-MALS; 0.1 mg protein in 0.25 mL phosphate buffer, incubated at 37 °C for 1 h; TSK G5000PWXL column, 0.75 mL/min; subunits per oligomer = oligomeric mass divided by subunit mass.

B1: αB-crystallin with residues 21–28 and 54–61 deleted (natural protein, human, UniProt P02511 1-175, looked up)
chain: MDIAIHHPWIRRPFFPFHSPGEHLLESDLFPTSTSLSPFYLRPPSDTGLSEMRLEKDRFSVNLDVKHFSPEELKVKVLGDVIEVHGKHEERQDEHGFISREFHRKYRIPADVDPLTITSSLSSDGVLTVNGPRKQVSGPERTIPITREEKPAVTAAPKK
notes: Gene from GenScript in pET23a(+), without the C-terminal His-tag; the in-frame T7 tag was removed by PCR; Small homo-oligomer, average molar mass 85 kDa, on average close to four subunits; also called αBΔ21–28, Δ54–61; αB∆21–28, ∆54–61; source: E. coli BL21(DE3) pLysS, purified (45% ammonium sulfate precipitation, Superdex G200 gel filtration)
Turning to B1, the “stoichiometry N” value was ~4 subunits per oligomer.

B2: wild-type αB-crystallin (natural protein, human, UniProt P02511 1-175, looked up)
chain: MDIAIHHPWIRRPFFPFHSPSRLFDQFFGEHLLESDLFPTSTSLSPFYLRPPSFLRAPSWFDTGLSEMRLEKDRFSVNLDVKHFSPEELKVKVLGDVIEVHGKHEERQDEHGFISREFHRKYRIPADVDPLTITSSLSSDGVLTVNGPRKQVSGPERTIPITREEKPAVTAAPKK
notes: αB-crystallin, human, wild type, recombinant; called full-length αB-WT; Polydisperse homo-oligomer (average molar mass 558 kDa by MALS); also called αB-WT; WT-αB; source: E. coli BL21(DE3) pLysS, purified (45% ammonium sulfate precipitation, Superdex G200 gel filtration)
Regarding B2, the binding result is reported as “binds”.

B3: αB-crystallin with residues 54–61 deleted (natural protein, human, UniProt P02511 1-175, looked up)
chain: MDIAIHHPWIRRPFFPFHSPSRLFDQFFGEHLLESDLFPTSTSLSPFYLRPPSDTGLSEMRLEKDRFSVNLDVKHFSPEELKVKVLGDVIEVHGKHEERQDEHGFISREFHRKYRIPADVDPLTITSSLSSDGVLTVNGPRKQVSGPERTIPITREEKPAVTAAPKK
notes: Polydisperse homo-oligomer (average molar mass 262 kDa by MALS); also called αBΔ54–61; αB∆54–61; source: E. coli BL21(DE3) pLysS, purified (45% ammonium sulfate precipitation, Superdex G200 gel filtration)
B3: the binding result is listed as “binds”.

By stoichiometry N is commonly meant the number of molecules, sites or subunits per partner or assembly.
